Reference: patent publication US20040091465A1, “Therapeutic antiangiogenic compositions and methods” (priority 2002, published 2004)

B1: endostatin: 20 kDa inhibitor of endothelial cell proliferation purified from EOMA conditioned media; C-terminal fragment of collagen XVIII NC1 domain (protein, listed as Homo sapiens)
chain: HSHRDFQPVLHLVALNSPLSGGMRGIRGADFQCFQQARAVGLAGTFRAFLSSRLQDLYSIVRRADRAAVPIVNLKDELLFPSWEALFSGSEGPLKPGARIFSFDGKDVLRHPTWPQKSVWHGSDPNGRRLTESYCETWRTEAPSATGQASSLLGGRLLGQSAASCHHAYIVLCIENSFMTASK
B2: endostatin derived from human: recombinant endostatin from the human sequence, produced in E. coli (protein, listed as Homo sapiens)
chain: B1 chain

What was measured:
[1] = test system: Lewis Lung carcinoma cells; assay: Non-endothelial cell proliferation assay, LLC; type: cell-based; settings: 72 hours
Experimental: (§1) Bovine aortic smooth muscle (SMC), bovine retinal pigment epithelial (RPE), mink lung epithelial (MLE), Lewis lung carcinoma (LLC), and EOMA cells and 3T3 fibroblasts were maintained in a 10% CO2 and 37° C. incubator. For the proliferation assays, cells were washed with PBS and were dispersed in a 0.05% solution of trypsin. Optimal conditions for the cell proliferation assays were established for each different cell type. Fetal calf serum (FCS) was used for the RPE, MLE, and LLC cells and BCS was used for the other cell types. A cell suspension (20,000 cells/ml for SMC, RPE, MLE; 15,000 cells/ml for 3T3; 10,000 cells/ml for LLC, EOMA) was made with DMEM+10% bovine serum+1% GPS, plated onto 24 well culture plates (0.5 ml/well), and incubated (37° C., 10% C02) for 24 hours. The media was replaced with 0.5 ml of DMEM+5% bovine serum+1% GPS and the test sample applied. After 72 hours, cells were dispersed in trypsin, resuspended in Hematall (Fisher Scientific, Pittsburgh, Pa.), and counted by Coulter counter.

[2] = test system: cells of non-endothelial origin; assay: Non-endothelial cell proliferation assays, stated for all lines together; type: cell-based; settings: doses 1 log unit higher than those used to inhibit capillary endothelial cell proliferation
Experimental: as §1

[3] = test system: bovine capillary endothelial cells; assay: Bovine capillary endothelial (BCE) cell proliferation assay, 72 hours, bFGF; type: cell-based
Experimental: To further characterize the 20 kDa inhibitor, we tested it on several cell lines of endothelial and non-endothelial origin. For the BCE assay, bovine capillary endothelial cells were obtained and grown as previously described (Folkman et al., 1979). For the proliferation assay, cells were washed with PBS and dispersed in a 0.05% solution of trypsin. A cell suspension (25,000 cells/ml) was made with DMEM+10% BCS+1% GPS, plated onto gelatinized 24-well culture plates ([…]), and incubated (37° C., 10% CO2) for 24 hours. The media was replaced with 0.25 ml of DMEM+5% BCS+1% GPS and the test sample applied. After 20 minutes of incubation, media and bFGF were added to obtain a final volume of 0.5 ml of DMEM+5% BCS+1% GPS+1 ng/ml bFGF. After 72 hours, cells were dispersed in trypsin, resuspended in Hematall (Fisher Scientific, Pittsburgh, Pa.), and counted by Coulter counter.

[4] = test system: 3T3 fibroblasts; assay: Non-endothelial cell proliferation assay, 3T3; type: cell-based; settings: 72 hours
Experimental: as §1

[5] = test system: Bovine retinal pigment epithelial cells; assay: Non-endothelial cell proliferation assay, RPE; type: cell-based; settings: 72 hours
Experimental: as §1

[6] = test system: Mink lung epithelial cells; assay: Non-endothelial cell proliferation assay, MLE; type: cell-based; settings: 72 hours
Experimental: as §1

[7] = test system: Bovine aortic smooth muscle cells; assay: Non-endothelial cell proliferation assay, SMC; type: cell-based; settings: 72 hours
Experimental: as §1

[8] = test system: EOMA hemangioendothelioma cells; assay: Non-endothelial cell proliferation assay, EOMA; type: cell-based, murine; settings: 72 hours
Experimental: as §1

[9] = test system: Lewis lung carcinoma primary tumors; assay: Systemic therapy of Lewis lung carcinoma primary tumors; type: in vivo, mice; settings: 20 mg/kg/day, FIG. 11

| Molecule | Effect on Lewis lung carcinoma cell proliferation [1] | Effect on Lewis lung carcinoma cell proliferation ([1]; listed as ENDOSTATIN) | Inhibition of proliferation of cells of non-endothelial origin [2] | Dose at which inhibition of endothelial cell proliferation was first observed ([3]; 72 hour BCE assay) | Dose giving maximal inhibition of endothelial cell proliferation ([3]; 72 hour BCE assay) | Effect on bovine capillary endothelial cell proliferation ([3]; 72 hour proliferation assay, 1 ng/ml bFGF) | Effect on 3T3 fibroblast proliferation [4] | Effect on 3T3 fibroblast proliferation ([4]; listed as ENDOSTATIN) | Effect on bovine retinal pigment epithelial cell proliferation [5] | Effect on mink lung epithelial cell proliferation [6] | Effect on bovine aortic smooth muscle cell proliferation [7] | Effect on bovine aortic smooth muscle cell proliferation ([7]; listed as ENDOSTATIN) | Effect on EOMA hemangioendothelioma cell proliferation [8] | Effect on EOMA hemangioendothelioma cell proliferation ([8]; listed as ENDOSTATIN) | Inhibition of Lewis lung carcinoma tumor growth by human endostatin [9] |
| --- | --- | --- | --- | --- | --- | --- | --- | --- | --- | --- | --- | --- | --- | --- | --- |
| B1 | no effect | NON-INHIBITED | No significant inhibition | 100 ng/mL | ≥ 600 ng/mL | INHIBITED | no effect | NON-INHIBITED | NON-INHIBITED | NON-INHIBITED | no effect | NON-INHIBITED | no effect | NON-INHIBITED |  |
| B2 |  |  |  |  |  |  |  |  |  |  |  |  |  |  | effectiveness |
